Data on 4 molecules can be found in patent publication US6555322B1, “α2-macroglobulin receptor as a receptor for CTGF” (FibroGen, Inc., priority 1999, dated 2003).

For one assay, the target named is T1, LRP receptor (Mus musculus, UniProt Q91ZX7).
T1 construct: endogenous in cells; host or cells: BMS2 (BMS-2) murine bone marrow stromal cells
The experiment in a line: Competitive binding and cross-linking of LRP ligands with 125I-CTGF on BMS-2 cells. As to conditions: 50 pM 125I-CTGF; CTGF 21.5 nM, BP5 201-218 50 μg/ml, LF 25 μg/ml, apo E 20 μg/ml, LpL 20 μg/ml. More on the design: species or system murine. How it is done:
To examine whether ligands known to bind to LRP inhibit CTGF binding, BMS-2 cells were labeled with 50 pM ^125I-CTGF in the presence or absence of unlabeled ligand (CTGF: 21.5 nM; BP5^201-218: 50 μg/ml or […] (Campbell and Andress, 1997, Am. J. Physiol., 273:E1005-13); lactoferrin (LF): 25 μg/ml or 250 nM; apo E: 20 μg/ml or 574 nM; lipoprotein lipase (LpL): 20 μg/ml or 400 nM). The cells were cross-linked and the receptor complexes were solubilized, processed on SDS-PAGE and visualized by autoradiography.

In assay [1] the test system is MG63 cells. Nature of the assay: Internalization and degradation kinetics of 125I-CTGF with heparin or lactoferrin. The format is cell-based, human. As to the method: Experiments were performed in which the internalization and degradation kinetics of CTGF were followed in the presence or absence of a known LRP ligand, lactoferrin. Kinetics were followed in the presence or absence of 3 μg/ml heparin or lactoferrin. ^125I-CTGF was bound to MG63 cells at 4° C. and free CTGF was removed by washing the cells. Fresh medium was placed on the cells, and the cells were transferred to 37° C. At each time point, the medium was removed and TCA precipitated. Degraded ^125I-CTGF was quantified by measuring the cpm in the non-precipitable fraction (see FIG. 17). In parallel experiments, ^125I-CTGF was bound to MG63 cells at 4° C. and free CTGF was removed by washing the cells. Fresh medium was placed on the cells, and they were transferred to 37° C. At each time point, the cell layer was removed by extensive trypsinization at 4° C. The cells were centrifuged and the cpm associated with the pellet, the internalized fraction, was determined (see FIG. 18).

Assay [2] relates to MG63 cells. The experiment in a line: Internalization and degradation time course of 125I-rhCTGF after TGF-β treatment. In kind it is cell-based, human. As to the method: To examine whether LRP function was altered by TGF-β treatment, the following experiments were conducted. MG63 cells were plated at 2.5×10^4 cells/cm^2 in MEM with 10% FBS. The following day, the cells were rinsed with MEM containing 0.5% MEM and incubated in this low serum medium with or without 20 ng/ml of TGF-β2. At 24 or 48 hours the cells were rinsed twice with binding medium, then incubated at 4° C. for 3 hours with 0.2 nM ^125I-rhCTGF. After incubation, the cells were rinsed 4 times with binding buffer at 4° C., then fresh binding buffer pre-warmed to 37° C. was added and the cells continued incubation at 37° C. At time points of 0, 15, 30, 60, 120 and 180 min, the media were collected and processed by precipitation with 10% TCA. The cell layer was processed by trypsination of the cells. Pellets and supernatants were separated and counted for each point.

The subject of assay [3] is MG63 cells. The experiment in a line: Protein synthesis in the presence of PEA as measure of LRP internalization activity. In kind it is cell-based, human. As to conditions: 20 ng/ml TGF-β for 48 hours, 14C-amino acid pulse. As to the method: Pseudomonas exotoxin A (PEA) is a ligand for LRP, and following internalization is degraded in lysosomes. One of the degradation products contains PEA domain III, which promotes ADP-ribosylation of elongation factor-2, inhibiting protein synthesis. Protein synthesis in the presence of various concentrations of PEA was used to measure the internalization activity of LRP. To test whether TGF-β altered LRP activity for PEA internalization, MG63 cells were treated with 20 ng/ml TGF-β for 48 hours, then treated with various concentrations of PEA. After 2 hours, protein synthesis was monitored with an overnight pulse of ^14C-amino acids. The cell layers were extracted with 10% trichloroacetic acid and counted.

Assay [4] deals with MG63 cells. The experiment in a line: Internalization and degradation of 125I-rhCTGF during binding, with additives. The settings on record: two hour incubation at 37° C. The format is cell-based, human.
For assay [5], the target named is T2, high Mr CTGF binding protein on BMS-2 cells (Mus musculus, UniProt Q91ZX7).
T2 construct: endogenous in cells; host or cells: BMS2 (BMS-2) murine bone marrow stromal cells
Nature of the assay: Binding analysis of 125I-CTGF competition with LRP ligands on BMS-2 cells. As to conditions: 0.1 nM 125I-CTGF. More on the design: species or system murine. As to the method:
BMS-2 cells were incubated with 0.1 nM ^125I-CTGF in the presence of unlabeled CTGF, recombinant human apoE, low density lipoprotein purified from human plasma (LDL), or lipoprotein lipase purified from bovine milk (LpL).

Assay [6] has as its target T3, CTGF receptor on MG63 cells (Homo sapiens, UniProt Q07954).
T3 construct: endogenous in cells; host or cells: MG63 human osteosarcoma cells
The experiment in a line: Specificity of CTGF binding in the presence of known growth factors, cross-linking. The settings on record: 200 pM 125I-CTGF, growth factor at 1 μg/ml. How it is done:
The specificity of CTGF binding to the CTGF receptor was analyzed by performing an affinity binding experiment in the presence of a number of known growth factors. MG63 cells were labeled with 200 pM ^125I-CTGF in the presence of the indicated growth factor at 1 μg/ml. The cells were cross-linked with S-SMCC and the cell lysates were reduced prior to SDS-PAGE.

A further assay concerns LRP. The experiment in a line: Cross-linking and equilibrium binding of 125I-rhCTGF on MEF1, PEA 10 and PEA 13 cells. More on the design: species or system murine. How it is done: Three cell lines useful for a complete genetic system for the study of LRP function were generated by Willnow and Herz (1994, J. Cell Sci. 103:719-726) and obtained from the American Type Culture Collection (ATCC). The wild type line, MEF1, are fibroblasts originating from murine embryos and are homozygous positive for LRP expression. Fibroblasts that carry one or two copies of the defective LRP allele from hybrid embryos (see Herz et al.(1992) Cell. 71:411-21) were cultured in Pseudomonas exotoxin A (PEA) and the resistant clones, PEA 10 and PEA 13, which are heterozygous and homozygous, respectively, for LRP deficiency. Resistance to Pseudomonas exotoxin A by PEA 10 and PEA 13 cell lines, as well as sensitivity by MEF1 cells, was confirmed by growth in 30 ng/ml Pseudomonas exotoxin A after receipt from ATCC.
The three cell lines were cultured and plated for affinity binding with radiolabeled CTGF, cross-linking and gel analysis. Specifically, cross-linking of ^125I-rhCTGF to monolayers of MEF1, PEA 10 and PEA 13 cells were carried out as follows: Cells plated in 6-well dishes were incubated at 4° C. with 0.2 nM ^125I-rhCTGF in the presence (+) or absence (−) of a 200 fold excess of unlabeled rhCTGF in a binding buffer of PBS, 0.2% BSA, 0.02% sodium azide. After a 3 hour period of labeling, cells were cross-linked with 0.5 mM BS^3 for 15 minutes at room temperature. […]

The subject of a further assay is CTGF receptor. Nature of the assay: Cell survey of CTGF cross-linked receptor complexes. In kind it is binding.
[7] abbreviates: 20 ng/ml TGF-β2, 48 hour exposure.

T1 sequence (Q91ZX7 20-4545): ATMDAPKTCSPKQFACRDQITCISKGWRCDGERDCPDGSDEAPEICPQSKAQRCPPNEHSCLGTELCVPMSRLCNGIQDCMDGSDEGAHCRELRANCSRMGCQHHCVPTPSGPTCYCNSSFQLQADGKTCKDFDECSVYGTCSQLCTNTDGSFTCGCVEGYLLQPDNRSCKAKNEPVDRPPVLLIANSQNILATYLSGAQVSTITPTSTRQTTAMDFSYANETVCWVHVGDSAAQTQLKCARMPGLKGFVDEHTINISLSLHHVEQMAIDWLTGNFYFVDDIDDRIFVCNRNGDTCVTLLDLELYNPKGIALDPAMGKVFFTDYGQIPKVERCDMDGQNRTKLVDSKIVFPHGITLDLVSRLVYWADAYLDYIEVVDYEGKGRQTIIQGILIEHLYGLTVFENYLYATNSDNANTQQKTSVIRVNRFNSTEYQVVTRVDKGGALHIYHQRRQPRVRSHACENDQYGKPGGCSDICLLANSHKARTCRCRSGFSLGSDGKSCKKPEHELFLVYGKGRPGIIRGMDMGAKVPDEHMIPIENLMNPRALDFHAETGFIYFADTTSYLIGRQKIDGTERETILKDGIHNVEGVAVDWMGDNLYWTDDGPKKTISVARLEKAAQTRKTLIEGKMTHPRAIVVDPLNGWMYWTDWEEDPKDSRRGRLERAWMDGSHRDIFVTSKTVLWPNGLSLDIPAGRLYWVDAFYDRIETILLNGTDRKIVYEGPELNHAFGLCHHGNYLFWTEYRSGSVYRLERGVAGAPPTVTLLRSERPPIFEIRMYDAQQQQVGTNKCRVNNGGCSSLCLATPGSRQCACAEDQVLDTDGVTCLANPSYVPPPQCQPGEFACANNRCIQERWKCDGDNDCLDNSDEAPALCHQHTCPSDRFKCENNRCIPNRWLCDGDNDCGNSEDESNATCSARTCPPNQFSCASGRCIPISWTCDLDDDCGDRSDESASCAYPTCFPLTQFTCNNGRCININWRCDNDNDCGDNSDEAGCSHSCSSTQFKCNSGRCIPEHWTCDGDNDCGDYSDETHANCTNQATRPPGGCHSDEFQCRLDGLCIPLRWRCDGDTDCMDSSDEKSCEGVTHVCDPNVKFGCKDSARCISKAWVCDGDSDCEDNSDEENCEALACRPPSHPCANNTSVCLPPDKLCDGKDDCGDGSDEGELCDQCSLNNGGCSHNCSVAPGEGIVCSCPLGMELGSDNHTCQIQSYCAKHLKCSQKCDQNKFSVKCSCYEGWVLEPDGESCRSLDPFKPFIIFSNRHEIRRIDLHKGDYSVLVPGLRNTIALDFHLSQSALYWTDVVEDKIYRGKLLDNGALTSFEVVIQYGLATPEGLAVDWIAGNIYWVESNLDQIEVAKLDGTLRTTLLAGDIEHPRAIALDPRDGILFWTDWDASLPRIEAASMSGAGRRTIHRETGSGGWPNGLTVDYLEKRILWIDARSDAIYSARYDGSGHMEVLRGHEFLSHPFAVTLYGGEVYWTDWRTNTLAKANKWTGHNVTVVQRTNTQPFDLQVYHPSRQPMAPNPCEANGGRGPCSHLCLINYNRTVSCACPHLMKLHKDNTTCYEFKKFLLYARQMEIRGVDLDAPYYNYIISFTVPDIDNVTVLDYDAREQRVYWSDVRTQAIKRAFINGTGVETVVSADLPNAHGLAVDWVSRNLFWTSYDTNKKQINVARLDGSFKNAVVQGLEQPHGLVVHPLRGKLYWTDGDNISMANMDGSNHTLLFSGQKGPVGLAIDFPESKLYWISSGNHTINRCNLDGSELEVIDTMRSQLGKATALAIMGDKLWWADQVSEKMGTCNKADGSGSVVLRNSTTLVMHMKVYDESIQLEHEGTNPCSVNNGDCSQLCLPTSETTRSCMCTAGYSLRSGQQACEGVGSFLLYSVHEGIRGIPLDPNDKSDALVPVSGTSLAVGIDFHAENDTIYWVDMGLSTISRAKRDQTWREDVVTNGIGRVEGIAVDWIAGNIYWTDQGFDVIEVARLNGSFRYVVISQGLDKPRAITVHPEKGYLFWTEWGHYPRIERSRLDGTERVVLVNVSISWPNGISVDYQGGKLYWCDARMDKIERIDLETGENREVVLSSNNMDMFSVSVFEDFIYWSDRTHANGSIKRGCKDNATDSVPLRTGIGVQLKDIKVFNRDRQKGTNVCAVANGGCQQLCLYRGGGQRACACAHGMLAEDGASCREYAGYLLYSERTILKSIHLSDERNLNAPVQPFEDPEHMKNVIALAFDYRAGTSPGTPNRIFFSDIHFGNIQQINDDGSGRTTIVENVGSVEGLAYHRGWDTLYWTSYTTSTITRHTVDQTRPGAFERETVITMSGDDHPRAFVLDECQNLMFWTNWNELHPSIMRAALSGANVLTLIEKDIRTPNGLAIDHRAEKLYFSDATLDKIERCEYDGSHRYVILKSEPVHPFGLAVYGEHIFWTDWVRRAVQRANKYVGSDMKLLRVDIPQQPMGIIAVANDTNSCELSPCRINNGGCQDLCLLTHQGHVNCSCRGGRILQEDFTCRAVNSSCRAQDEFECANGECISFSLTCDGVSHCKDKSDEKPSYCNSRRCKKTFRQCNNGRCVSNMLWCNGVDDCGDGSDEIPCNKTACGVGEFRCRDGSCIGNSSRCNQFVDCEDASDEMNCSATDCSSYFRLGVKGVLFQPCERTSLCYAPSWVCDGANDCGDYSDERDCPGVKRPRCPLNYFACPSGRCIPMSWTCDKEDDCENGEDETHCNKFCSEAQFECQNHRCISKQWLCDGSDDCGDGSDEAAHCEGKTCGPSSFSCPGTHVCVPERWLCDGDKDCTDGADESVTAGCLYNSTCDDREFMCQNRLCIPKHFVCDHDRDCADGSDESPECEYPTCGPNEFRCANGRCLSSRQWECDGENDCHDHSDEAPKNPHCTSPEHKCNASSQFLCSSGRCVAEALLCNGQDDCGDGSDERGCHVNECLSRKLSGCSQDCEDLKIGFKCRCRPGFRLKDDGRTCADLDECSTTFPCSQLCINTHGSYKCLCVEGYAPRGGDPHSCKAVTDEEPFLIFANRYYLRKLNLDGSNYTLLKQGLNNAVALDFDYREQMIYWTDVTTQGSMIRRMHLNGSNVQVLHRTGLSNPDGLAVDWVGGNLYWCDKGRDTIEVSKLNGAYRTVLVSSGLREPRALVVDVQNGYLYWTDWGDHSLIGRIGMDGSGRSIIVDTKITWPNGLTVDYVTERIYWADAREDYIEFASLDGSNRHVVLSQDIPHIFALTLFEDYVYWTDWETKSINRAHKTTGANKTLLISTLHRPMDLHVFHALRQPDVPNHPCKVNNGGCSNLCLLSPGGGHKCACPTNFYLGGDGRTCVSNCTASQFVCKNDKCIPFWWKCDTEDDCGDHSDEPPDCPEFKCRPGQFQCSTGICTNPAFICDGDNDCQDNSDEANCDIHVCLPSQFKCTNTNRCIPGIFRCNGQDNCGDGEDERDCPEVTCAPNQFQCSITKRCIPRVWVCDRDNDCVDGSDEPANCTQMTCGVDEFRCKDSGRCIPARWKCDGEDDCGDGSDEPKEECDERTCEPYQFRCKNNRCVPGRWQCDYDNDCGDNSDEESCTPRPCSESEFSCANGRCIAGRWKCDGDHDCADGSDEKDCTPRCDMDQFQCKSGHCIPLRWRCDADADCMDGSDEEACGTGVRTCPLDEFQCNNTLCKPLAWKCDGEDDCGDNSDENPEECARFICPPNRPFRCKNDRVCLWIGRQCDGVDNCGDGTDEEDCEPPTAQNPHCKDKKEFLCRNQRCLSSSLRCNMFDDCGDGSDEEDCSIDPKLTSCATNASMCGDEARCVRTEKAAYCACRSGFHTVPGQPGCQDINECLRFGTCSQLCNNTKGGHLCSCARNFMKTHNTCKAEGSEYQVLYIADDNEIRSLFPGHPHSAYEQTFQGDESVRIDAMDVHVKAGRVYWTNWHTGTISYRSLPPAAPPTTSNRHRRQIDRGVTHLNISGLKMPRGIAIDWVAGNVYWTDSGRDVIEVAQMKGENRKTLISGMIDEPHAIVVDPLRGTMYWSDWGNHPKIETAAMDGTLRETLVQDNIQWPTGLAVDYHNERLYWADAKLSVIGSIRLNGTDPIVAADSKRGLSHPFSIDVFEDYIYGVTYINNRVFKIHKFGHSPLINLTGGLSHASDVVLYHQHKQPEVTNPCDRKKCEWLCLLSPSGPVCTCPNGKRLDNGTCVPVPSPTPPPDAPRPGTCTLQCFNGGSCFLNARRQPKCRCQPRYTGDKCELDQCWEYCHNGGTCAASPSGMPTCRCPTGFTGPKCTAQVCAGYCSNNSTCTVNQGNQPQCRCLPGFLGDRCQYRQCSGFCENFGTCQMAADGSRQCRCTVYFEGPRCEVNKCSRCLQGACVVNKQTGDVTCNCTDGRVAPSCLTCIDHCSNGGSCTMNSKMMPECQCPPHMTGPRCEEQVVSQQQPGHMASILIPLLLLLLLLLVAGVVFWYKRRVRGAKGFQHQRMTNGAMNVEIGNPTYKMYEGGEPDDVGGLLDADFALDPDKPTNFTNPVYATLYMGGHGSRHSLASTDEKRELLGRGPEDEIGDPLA
T2 sequence (Q91ZX7 20-4545): as above

B1: lactoferrin (protein, UniProt P02788 20-710, looked up)
Lactotransferrin: GRRRSVQWCAVSQPEATKCFQWQRNMRKVRGPPVSCIKRDSPIQCIQAIAENRADAVTLDGGFIYEAGLAPYKLRPVAAEVYGTERQPRTHYYAVAVVKKGGSFQLNELQGLKSCHTGLRRTAGWNVPIGTLRPFLNWTGPPEPIEAAVARFFSASCVPGADKGQFPNLCRLCAGTGENKCAFSSQEPYFSYSGAFKCLRDGAGDVAFIRESTVFEDLSDEAERDEYELLCPDNTRKPVDKFKDCHLARVPSHAVVARSVNGKEDAIWNLLRQAQEKFGKDKSPKFQLFGSPSGQKDLLFKDSAIGFSRVPPRIDSGLYLGSGYFTAIQNLRKSEEEVAARRARVVWCAVGEQELRKCNQWSGLSEGSVTCSSASTTEDCIALVLKGEADAMSLDGGYVYTAGKCGLVPVLAENYKSQQSSDPDPNCVDRPVEGYLAVAVVRRSDTSLTWNSVKGKKSCHTAVDRTAGWNIPMGLLFNQTGSCKFDEYFSQSCAPGSDPRSNLCALCIGDEQGENKCVPNSNERYYGYTGAFRCLAENAGDVAFVKDVTVLQNTDGNNNEAWAKDLKLADFALLCLDGKRKPVTEARSCHLAMAPNHAVVSRMDKVERLKQVLLHQQAKFGRNGSDCPDKFCLFQSETKNLLFNDNTECLARLHGKTTYEKYLGPQYVAGITNLKKCSTSPLLEACEFLRK
notes: known LRP ligand
B1: the “competing the binding to the LRP receptor” value (“competing the binding” for short) with LRP receptor is given as “very effective in competing”. Moreover, in the assay on MG63 cells [1] (3 μg/ml heparin or lactoferrin), the “rate of degradation of CTGF” value was “reduced the rate” and the “rate of internalization of CTGF” value is recorded as “reduced the rate”.

B2: transforming growth factor beta (protein)
chain: ALDAAYCFRNVQDNCCLRPLYIDFKRDLGWKWIHEPKGYNANFCAGACPYLWSSDTQHSRVLSLYNTINPEASASPCCVSQDLEPLTILYYIGKTPKIEQLSNMIVKSCKCS
notes: growth factor, 20 ng/ml TGF-β2 used to treat MG63 cells
For B2, in the assay with MG63 cells [2] (setting [7]), the “degradation of 125I-CTGF, control cells relative to TGF-β treated cells” value is given as “at least 3 fold” and the “internalization of CTGF in TGF-β treated cells” value is “more modest internalization”. In the assay on MG63 cells [2] (TGF-β treated versus control cells), the “internalization and degradation of CTGF by CTGF receptor (LRP), lower in TGF-β treated cells” value was “about 3 fold”. Moreover, in the assay on MG63 cells [3], the “sensitivity to PEA, TGF-β treated cells less sensitive than control cells” value is “about 3 fold”. Moreover, in the assay on MG63 cells [4] (48 hours post-TGF-β exposure), the “CTGF degraded, TGF-β treated cells” value came out at 400 fmol and the “CTGF specifically internalized, TGF-β treated cells” value was “about 150 fmoles”.

B3: lipoprotein lipase (protein)
chain: DRITGGKDFRDIESKFALRTPEDTAEDTCHLIPGVTESVANCHFNHSSKTFVVIHGWTVTGMYESWVPKLVAALYKREPDSNVIVVDWLSRAQQHYPVSAGYTKLVGQDVAKFMNWMADEFNYPLGNVHLLGYSLGAHAAGIAGSLTNKKVNRITGLDPAGPNFEYAEAPSRLSPDDADFVDVLHTFTRGSPGRSIGIQKPVGHVDIYPNGGTFQPGCNIGEALRVIAERGLGDVDQLVKCSHERSVHLFIDSLLNEENPSKAYRCNSKEAFEKGLCLSCRKNRCNNMGYEINKVRAKRSSKMYLKTRSQMPYKVFHYQVKIHFSGTESNTYTNQAFEISLYGTVAESENIPFTLPEVSTNKTYSFLLYTEVDIGELLMLKLKWISDSYFSWSNWWSSPGFDIGKIRVKAGETQKKVIFCSREKMSYLQKGKSPVIFVKCHDKSLNRKSG
notes: lipoprotein lipase purified from bovine milk, known LRP ligand
As to B3, the “competition with 125I-CTGF” value in assay [5] is reported as “competed”. Further, the “competing the binding” value with LRP receptor is recorded as “very effective in competing”.

B4: connective tissue growth factor (protein)
chain: QNCSGPCRCPDEPAPRCPAGVSLVLDGCGCCRVCAKQLGELCTERDPCDPHKGLFCHFGSPANRKIGVCTAKDGAPCIFGGTVYRSGESFQSSCKYQCTCLDGAVGCMPLCSMDVRLPSPDCPFPRRVKLPGKCCEEWVCDEPKDQTVVGPALAAYRLEDTFGPDPTMIRANCLVQTTEWSACSKTCGMGISTRVTNDNASCRLEKQSRLCMVRPCEADLEENIKKGKKCIRTPKISKPIKFELSGCTSMKTYRAKFCGVCTDGRCCTPHRTTTLPVEFKCPDGEVMKKNMMFIKTCACHYNCPGDNDIFESLYYRKMYGDMA
notes: recombinant human CTGF produced in baculovirus-infected Hi 5 insect cells, also used radioiodinated
As for B4, the “competition for CTGF binding to the cell surface” value in assay [6] is “effectively competed”. In the assay with LRP (0.2 nM 125I-rhCTGF, BS3, overexposed autoradiograph), the “cross-linked signal co-migrating with the complex, PEA 13 cells” value is recorded as “no signal”. Moreover, the “CTGF binding on PEA 13 cells” value in the assay with LRP (PEA 13, homozygous LRP deficient) is on record as “no binding was detected”. Further, in the assay with LRP receptor, the “competing the binding” value is listed as “most effective”. Besides, the “time of internalization of CTGF” value in the assay on MG63 cells [1] (37° C. after binding at 4° C.) is ≤ 30 min. Besides, the “cross-linking of CTGF to CHO and MLEC cells” value in the assay on CTGF receptor is on record as “did not appear to cross-link”. Besides, the “CTGF specifically internalized, control cells” value in the assay with MG63 cells [4] (0.2 nM 125I-rhCTGF, no TGF-β) is on record as “approximately 260 fmoles CTGF/mg cell protein”. In the assay on MG63 cells [4] (no TGF-β), the “CTGF degraded, control cells” value is “About 1000 fmoles/mg cell protein”.
